Measurements: the supplement of paper PMC10724198
± gives the standard deviation of the averaged measurements.

Columns and labels:
Saccharomyces cerevisiae [1] = test: protein stability index of tFT-peptide fusion (C-terminal peptide) (PSI (0-1 scale)); higher = more stable (slower turnover)
Method: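 MPS profiling in S. cerevisiae of the tFT-X12 degron library: putative degron peptides plus stable controls, 12 aa, fused to the C-terminus of a sfGFP-mCherry timer. Cells are FACS-sorted into 8 mCherry/sfGFP bins and deep-sequenced. PSI runs from 0 (unstable) to 1 (stable). Backgrounds are wild type, das1Δ and doa10Δ at 30 °C, and wild type, das1Δ, cdc34-1 and cdc53-1 at 37 °C; 2-3 technical replicates each.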

Saccharomyces cerevisiae [2] = test: as above; details: genetic background: wild type; temperature: 30 C
[3] = genetic background: cdc34-1, temperature: 37 C
[4] = genetic background: cdc53-1, temperature: 37 C
[5] = genetic background: das1 deletion, temperature: 30 C
[6] = genetic background: das1 deletion, temperature: 37 C
[7] = genetic background: doa10 deletion, temperature: 30 C
[8] = genetic background: wild type, temperature: 30 C
[9] = genetic background: wild type, temperature: 37 C
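Also: PSI is a weighted mean of sequencing reads over stability bins, variants kept only with over 10 reads, mCherry proximal and sfGFP distal, peptide attached via GGGS linker.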

Row | Sequence | protein stability index (Saccharomyces cerevisiae [1]; [3]) | protein stability index (Saccharomyces cerevisiae [1]; [4]) | protein stability index (Saccharomyces cerevisiae [1]; [5]) | protein stability index (Saccharomyces cerevisiae [1]; [6]) | protein stability index (Saccharomyces cerevisiae [1]; [7]) | protein stability index (Saccharomyces cerevisiae [1]; [8]) | protein stability index (Saccharomyces cerevisiae [1]; [9]) | protein stability index (Saccharomyces cerevisiae [2])
1 | FCFLLLSWAFWV | 0.155 ± 0.026 | 0.205 ± 0.0084 | 0.171 ± 0.03 | 0.27279 ± 7.6e-05 | 0.0977 ± 0.011 | 0.103 ± 0.026 | 0.1757 ± 0.00047 | 0.159 ± 0.048
2 | FCFVRGLLFLFF | 0.476 ± 0.0094 | 0.574 ± 0.065 | 0.383 ± 0.035 | 0.5423 ± 0.0025 | 0.386 ± 0.013 | 0.36 ± 0.034 | 0.506 ± 0.023 | 0.442 ± 0.06
3 | FCIYLCLSTSIT | 0.0795 ± 0.0063 | 0.221 ± 0.0083 | 0.14 ± 0.036 | 0.306 ± 0.025 | 0.119 ± 0.0062 | 0.129 ± 0.027 | 0.247 ± 0.0029 | 0.374 ± 0.084
4 | FCSLLVLLFFGV | 0.395 ± 0.042 | 0.4792 ± 0.0038 | 0.334 ± 0.018 | 0.473 ± 0.0052 | 0.323 ± 0.025 | 0.337 ± 0.022 | 0.466 ± 0.013 | 0.39365 ± 4e-05
5 | FELSVSVFQSVV | 0.318 ± 0.048 | 0.388 ± 0.0039 | 0.374 ± 0.023 | 0.3368 ± 0.002 | 0.409 ± 0.048 | 0.384 ± 0.044 | 0.318 ± 0.0051 | 0.338 ± 0.031
6 | FERVEYEVLGIG | 0.35 ± 0.0065 | 0.441 ± 0.037 | 0.394 ± 0.0079 | 0.449 ± 0.017 | 0.395 ± 0.012 | 0.38 ± 0.017 | 0.44 ± 0.021 | 0.415 ± 0.014
7 | FFASAAVHLVTC | 0.513 ± 0.01 | 0.521 ± 0.032 | 0.435 ± 0.02 | 0.559 ± 0.014 | 0.312 ± 0.0063 | 0.34 ± 0.016 | 0.491 ± 0.0037 | 0.4533 ± 0.0034
8 | FFLLLVGFSVLG | 0.223 ± 0.071 | 0.265 ± 0.012 | 0.238 ± 0.024 | 0.421 ± 0.024 | 0.224 ± 0.024 | 0.222 ± 0.021 | 0.373 ± 0.0038 | 0.349 ± 0.0064
9 | FFLLTCFLLPSV | 0.44 ± 0.03 | 0.512 ± 0.013 | 0.346 ± 0.036 | 0.526 ± 0.014 | 0.328 ± 0.013 | 0.341 ± 0.024 | 0.514 ± 0.014 | 0.441 ± 0.015
10 | FFLSFRLFSILL | 0.304 ± 0.033 | 0.359 ± 0.021 | 0.342 ± 0.021 | 0.413 ± 0.014 | 0.412 ± 0.027 | 0.292 ± 0.017 | 0.368 ± 0.011 | 0.3114 ± 0.0026
11 | FFLVILSWWVGE | 0.182 ± 0.023 | 0.225 ± 0.056 | 0.197 ± 0.036 | 0.345 ± 0.028 | 0.185 ± 0.0019 | 0.205 ± 0.052 | 0.31 ± 0.017 | 0.242 ± 0.017
12 | FFMLWCRVLLRL | 0.144 ± 0.026 | 0.102 ± 0.017 | 0.215 ± 0.014 | 0.278 ± 0.0028 | 0.18536 ± 0.00012 | 0.145 ± 0.031 | 0.167 ± 0.0071 | 0.2187 ± 0.002
13 | FFVFPFGLLFLS | 0.504 ± 0.058 | 0.515 ± 0.013 | 0.433 ± 0.023 | 0.583 ± 0.011 | 0.2525 ± 0.0007 | 0.232 ± 0.02 | 0.385 ± 0.0085 | 0.342 ± 0.0054
14 | FFVKGFRLLVFQ | 0.454 ± 0.039 | 0.481 ± 0.013 | 0.421 ± 0.04 | 0.573 ± 0.014 | 0.461 ± 0.019 | 0.384 ± 0.014 | 0.516 ± 0.046 | 0.47 ± 0.015
15 | FIGVLVYICREG | 0.1903 ± 0.0018 | 0.359 ± 0.084 | 0.254 ± 0.017 | 0.44 ± 0.024 | 0.187 ± 0.0062 | 0.228 ± 0.037 | 0.373 ± 0.018 | 0.329 ± 0.032
16 | FITFLVFVGFFL | 0.393 ± 0.06 | 0.421 ± 0.0078 | 0.313 ± 0.022 | 0.495 ± 0.026 | 0.263 ± 0.0094 | 0.295 ± 0.026 | 0.448 ± 0.0071 | 0.355 ± 0.034
17 | FKKIKGKIEKKN | 0.736 ± 0.021 | 0.897 ± 0.023 | 0.609 ± 0.042 | 0.726 ± 0.05 | 0.339 ± 0.061 | 0.336 ± 0.012 | 0.448 ± 0.0082 | 0.481 ± 0.023
18 | FKWVSRIRLLDA | 0.485 ± 0.014 | 0.566 ± 0.049 | 0.51 ± 0.023 | 0.483 ± 0.0055 | 0.24 ± 0.028 | 0.246 ± 0.016 | 0.411 ± 0.017 | 0.316 ± 0.027
19 | FKYRVPLVGVVK | 0.30503 ± 3.5e-05 | 0.317 ± 0.033 | 0.245 ± 0.029 | 0.43316 ± 0.00012 | 0.203 ± 0.018 | 0.25 ± 0.02 | 0.3897 ± 0.00038 | 0.347 ± 0.0072
20 | FLDYLLFIFFFF | 0.431 ± 0.054 | 0.519 ± 0.041 | 0.419 ± 0.032 | 0.522 ± 0.0072 | 0.464 ± 0.0094 | 0.392 ± 0.037 | 0.473 ± 0.039 | 0.415 ± 0.008

Row | Sequence | protein stability index (Saccharomyces cerevisiae [1]; [3]) | protein stability index (Saccharomyces cerevisiae [1]; [4]) | protein stability index (Saccharomyces cerevisiae [1]; [5]) | protein stability index (Saccharomyces cerevisiae [1]; [6]) | protein stability index (Saccharomyces cerevisiae [1]; [7]) | protein stability index (Saccharomyces cerevisiae [1]; [8]) | protein stability index (Saccharomyces cerevisiae [1]; [9]) | protein stability index (Saccharomyces cerevisiae [2])
21 | FLFQYLCIISSL | 0.0463 ± 0.007 | 0.166 ± 0.037 | 0.133 ± 0.046 | 0.233 ± 0.023 | 0.0866 ± 0.028 | 0.0716 ± 0.026 | 0.161 ± 0.013 | 0.217 ± 0.037
22 | FLGPMRVLVSSV | 0.568 ± 0.03 | 0.606 ± 0.032 | 0.424 ± 0.03 | 0.6003 ± 0.0019 | 0.401 ± 0.015 | 0.425 ± 0.026 | 0.565 ± 0.0044 | 0.522 ± 0.073
23 | FLLCRVFVLLRS | 0.043 ± 0.019 | 0.0441 ± 0.015 | 0.13 ± 0.037 | 0.215 ± 0.0095 | 0.1414 ± 0.0013 | 0.102 ± 0.018 | 0.125 ± 0.038 | 0.163 ± 0.045
24 | FLLPWLRPVFFF | 0.522 ± 0.056 | 0.607 ± 0.055 | 0.567 ± 0.013 | 0.69 ± 0.0074 | 0.219 ± 0.0046 | 0.218 ± 0.024 | 0.369 ± 0.029 | 0.293 ± 0.011
25 | FLLVGLLIVGCG | 0.175 ± 0.0045 | 0.272 ± 0.0014 | 0.206 ± 0.027 | 0.349 ± 0.018 | 0.166 ± 0.025 | 0.206 ± 0.026 | 0.334 ± 0.0082 | 0.225 ± 0.12
26 | FLSRVVLVVLLV | 0.258 ± 0.018 | 0.333 ± 0.006 | 0.245 ± 0.029 | 0.43 ± 0.02 | 0.196 ± 0.015 | 0.215 ± 0.034 | 0.339 ± 0.029 | 0.288 ± 0.026
27 | FLVIILFFLYMR | 0.144 ± 0.043 | 0.0943 ± 0.015 | 0.176 ± 0.042 | 0.232 ± 0.023 | 0.398 ± 0.017 | 0.184 ± 0.041 | 0.185 ± 0.02 | 0.209 ± 0.011
28 | FLYSVLLICKFI | 0.214 ± 0.029 | 0.258 ± 0.016 | 0.224 ± 0.037 | 0.389 ± 0.013 | 0.118 ± 0.016 | 0.0757 ± 0.035 | 0.0829 ± 0.034 | 0.135 ± 0.12
29 | FMANRYICQKTL | 0.522 ± 0.074 | 0.731 ± 0.018 | 0.635 ± 0.026 | 0.727 ± 0.01 | 0.0893 ± 0.023 | 0.0967 ± 0.022 | 0.168 ± 0.017 | 0.185 ± 0.012
30 | FPCRNFMVFFCF | 0.425 ± 0.029 | 0.442 ± 0.008 | 0.43 ± 0.035 | 0.505 ± 0.0097 | 0.211 ± 0.0036 | 0.204 ± 0.0085 | 0.285 ± 0.03 | 0.29 ± 0.03
31 | FPFPLSSFLLLY | 0.385 ± 0.015 | 0.401 ± 0.018 | 0.41 ± 0.032 | 0.516 ± 0.011 | 0.415 ± 0.028 | 0.331 ± 0.019 | 0.444 ± 0.0087 | 0.4195 ± 0.0039
32 | FRSMFLFLNLLF | 0.458 ± 0.05 | 0.3523 ± 0.00055 | 0.391 ± 0.048 | 0.73 ± 0.02 | 0.559 ± 0.015 | 0.371 ± 0.019 | 0.574 ± 0.025 | 0.412 ± 0.014
33 | FSFEGVLVPLLV | 0.31519 ± 3.7e-05 | 0.301 ± 0.043 | 0.288 ± 0.036 | 0.4113 ± 0.00044 | 0.249 ± 0.0058 | 0.287 ± 0.033 | 0.384 ± 0.0086 | 0.396 ± 0.015
34 | FSFFLYFFLLLF | 0.327 ± 0.025 | 0.304 ± 0.0072 | 0.31 ± 0.026 | 0.402 ± 0.016 | 0.392 ± 0.032 | 0.271 ± 0.034 | 0.389 ± 0.016 | 0.315 ± 0.0031
35 | FSGRYFLLFRFL | 0.238 ± 0.035 | 0.28 ± 0.0032 | 0.341 ± 0.0075 | 0.389 ± 0.0091 | 0.083 ± 0.015 | 0.0605 ± 0.014 | 0.144 ± 0.038 | 0.104 ± 0.019
36 | FSLLTWPFVFLV | 0.126 ± 0.021 | 0.0782 ± 0.0059 | 0.252 ± 0.041 | 0.346 ± 0.037 | 0.0816 ± 0.015 | 0.0575 ± 0.0078 | 0.0613 ± 0.011 | 0.08711 ± 0.00051
37 | FVCWGSLILCGG | 0.151 ± 0.0074 | 0.1833 ± 0.0012 | 0.19 ± 0.028 | 0.29 ± 0.0062 | 0.1516 ± 0.00087 | 0.181 ± 0.027 | 0.258 ± 0.0085 | 0.264 ± 0.012
38 | FVFAMSECIVLS | 0.269 ± 0.014 | 0.318 ± 0.0043 | 0.205 ± 0.025 | 0.393 ± 0.0046 | 0.269 ± 0.0044 | 0.214 ± 0.022 | 0.364 ± 0.00049 | 0.308 ± 0.0053
39 | FVLWLIYVDLFF | 0.214 ± 0.039 | 0.234 ± 0.013 | 0.196 ± 0.048 | 0.342 ± 0.015 | 0.181 ± 0.019 | 0.22 ± 0.033 | 0.339 ± 0.041 | 0.287 ± 0.094
